Measured values from US20190315886A1.

Legend:
[1] = biological target: human thrombin with His tag (human) (UniProt P00734); test: Biacore; ratio of KD on pro-thrombin to KD on thrombin
[2] = biological target: human prothrombin with His tag (human) (UniProt P00734); test: Biacore; reference h1601-008
[3] = biological target: human thrombin with His tag (human) (UniProt P00734); test: Biacore; reference h1601-008
[4] = biological target: human prothrombin with His tag (human) (UniProt P00734); test: Biacore
[5] = biological target: human thrombin with His tag (human) (UniProt P00734); test: Biacore

- Selective activity [1]: 51
- Fold of Affinity relative to h1601-008 [2]: 0.6 fold
- Fold of Affinity relative to h1601-008 [3]: 3 fold
- Kd [4]: 131 nM
- Kd [5]: 2.57 nM
Substance: Ichorcumab (antibody)
